The results in this text go back to patent US20160130347A1 (Hoffmann-La Roche, published 2016).

The target of assay [1] is human MCSP on tumor cells (human, UniProt Q6UVK1 30-2322). As to the kind of experiment: cell-based or functional assay.
The target of the next assay is human CD3 on T cells (human, UniProt P07766 23-126). As to the kind of experiment: cell-based or functional assay.
human CD3 on T cells, sequence (P07766 23-126 limits assumed): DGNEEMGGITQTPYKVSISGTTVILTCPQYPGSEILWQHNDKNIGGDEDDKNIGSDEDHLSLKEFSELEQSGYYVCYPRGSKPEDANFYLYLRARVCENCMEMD

human MCSP on tumor cells, sequence (Q6UVK1 30-2322): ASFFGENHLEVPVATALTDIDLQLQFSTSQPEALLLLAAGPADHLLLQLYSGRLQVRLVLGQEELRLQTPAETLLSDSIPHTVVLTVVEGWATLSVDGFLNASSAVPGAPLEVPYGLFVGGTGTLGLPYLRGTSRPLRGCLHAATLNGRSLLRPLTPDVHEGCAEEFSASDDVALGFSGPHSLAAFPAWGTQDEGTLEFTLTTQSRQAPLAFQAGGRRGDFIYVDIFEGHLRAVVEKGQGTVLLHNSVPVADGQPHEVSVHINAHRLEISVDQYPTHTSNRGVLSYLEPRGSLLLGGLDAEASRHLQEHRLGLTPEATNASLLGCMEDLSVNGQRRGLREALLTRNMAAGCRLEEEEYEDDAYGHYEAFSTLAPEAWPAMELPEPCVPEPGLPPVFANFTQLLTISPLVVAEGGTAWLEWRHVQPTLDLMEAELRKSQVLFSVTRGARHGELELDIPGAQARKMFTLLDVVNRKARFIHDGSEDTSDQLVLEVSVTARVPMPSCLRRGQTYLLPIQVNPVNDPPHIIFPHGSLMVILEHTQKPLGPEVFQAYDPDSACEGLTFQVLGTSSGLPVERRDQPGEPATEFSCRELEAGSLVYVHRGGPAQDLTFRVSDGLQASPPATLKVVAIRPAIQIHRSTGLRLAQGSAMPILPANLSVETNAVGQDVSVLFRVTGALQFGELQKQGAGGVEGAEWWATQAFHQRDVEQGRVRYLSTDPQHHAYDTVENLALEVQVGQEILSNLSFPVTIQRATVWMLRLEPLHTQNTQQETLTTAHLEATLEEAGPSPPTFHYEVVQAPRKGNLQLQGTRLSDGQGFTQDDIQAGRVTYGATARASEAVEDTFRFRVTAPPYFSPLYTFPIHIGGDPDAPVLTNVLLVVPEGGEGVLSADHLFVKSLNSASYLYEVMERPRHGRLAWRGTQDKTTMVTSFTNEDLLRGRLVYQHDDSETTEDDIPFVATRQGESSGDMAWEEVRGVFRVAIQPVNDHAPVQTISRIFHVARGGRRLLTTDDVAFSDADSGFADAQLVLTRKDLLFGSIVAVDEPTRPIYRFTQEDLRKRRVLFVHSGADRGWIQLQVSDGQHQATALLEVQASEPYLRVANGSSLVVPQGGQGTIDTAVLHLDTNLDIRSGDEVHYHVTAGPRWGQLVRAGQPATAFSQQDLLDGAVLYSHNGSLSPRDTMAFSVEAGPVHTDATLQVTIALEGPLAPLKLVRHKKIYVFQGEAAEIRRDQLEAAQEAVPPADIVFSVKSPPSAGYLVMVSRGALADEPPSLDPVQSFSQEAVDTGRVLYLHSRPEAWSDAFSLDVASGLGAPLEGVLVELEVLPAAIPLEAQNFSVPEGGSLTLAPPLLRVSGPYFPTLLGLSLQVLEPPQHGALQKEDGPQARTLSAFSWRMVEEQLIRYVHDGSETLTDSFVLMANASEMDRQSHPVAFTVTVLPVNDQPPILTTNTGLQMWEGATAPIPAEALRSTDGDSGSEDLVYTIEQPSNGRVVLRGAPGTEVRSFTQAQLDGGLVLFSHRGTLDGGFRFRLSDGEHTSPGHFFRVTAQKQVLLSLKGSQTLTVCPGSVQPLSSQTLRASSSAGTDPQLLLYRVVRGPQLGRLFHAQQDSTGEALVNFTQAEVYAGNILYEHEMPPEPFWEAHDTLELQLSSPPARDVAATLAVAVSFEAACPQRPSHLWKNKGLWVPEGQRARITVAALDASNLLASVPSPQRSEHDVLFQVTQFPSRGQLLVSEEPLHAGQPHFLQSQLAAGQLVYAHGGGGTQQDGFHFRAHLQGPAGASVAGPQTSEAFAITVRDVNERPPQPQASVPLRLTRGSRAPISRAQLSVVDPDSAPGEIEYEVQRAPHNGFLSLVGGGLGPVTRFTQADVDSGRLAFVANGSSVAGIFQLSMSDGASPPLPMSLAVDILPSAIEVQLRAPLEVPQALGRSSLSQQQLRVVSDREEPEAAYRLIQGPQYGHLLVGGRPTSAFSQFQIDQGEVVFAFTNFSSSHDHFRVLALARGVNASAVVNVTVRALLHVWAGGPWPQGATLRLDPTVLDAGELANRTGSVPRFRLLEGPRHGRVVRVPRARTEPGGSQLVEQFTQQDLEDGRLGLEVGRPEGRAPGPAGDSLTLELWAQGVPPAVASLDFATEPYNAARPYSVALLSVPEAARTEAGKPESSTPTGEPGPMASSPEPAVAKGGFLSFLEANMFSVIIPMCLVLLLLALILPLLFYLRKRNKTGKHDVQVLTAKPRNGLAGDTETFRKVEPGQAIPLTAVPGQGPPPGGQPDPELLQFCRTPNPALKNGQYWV

B1: (scFv)2 (antiMCSP/anti huCD3e) (bispecific antibody)
scFv: DIVLTQSPSSLSASLGDRVTISCSASQGIRNYLNWYQQRPDGTVKLLIYYTSSLHSGVPSRFSGSGSGTDYSLTISNLEPEDIATYYCQQYSKLPWTFGGGTKLEIKGGGGSGGGGSGGGGSEVQLQESGPGLVKPSQSLSLTCSVTGYSITSGYYWNWIRQFPGNKLEWMGYITYDGSNNYNPSLKNRISITRDTSKNQFFLKLNSVTTEDTATYYCADFDYWGQGTTLTVSSGGGGSEVQLVESGGGLVQPGGSLRLSCAASGYSFTGYTMNWVRQAPGKGLEWVALINPYKGVSTYNQKFKDRFTISVDKSKNTAYLQMNSLRAEDTAVYYCARSGYYGDSDWYFDVWGQGTLVTVSSVEGGSGGSGGSGGSGGVDDIQMTQSPSSLSASVGDRVTITCRASQDIRNYLNWYQQKPGKAPKLLIYYTSRLESGVPSRFSGSGSGTDYTLTISSLQPEDFATYYCQQGNTLPWTFGQGTKVEIKHHHHHH
As to B1, the “EC50 of killing (LDH release) of MV-3 cells, human PBMCs, E:T 10:1, ~24 h” value (in assay [1]; in the assay with human CD3 on T cells) was 0.0571 nM in each case.
